Sequences and labels used below:
B1: g716 (peptide)
peptide: HSQGTFTSDYK([γGlu-Palmitoyl])KYLDSRRAQDFVQWLVAGG-NH2
modifications: N-terminus assumed
SMILES: CCCCCCCCCCCCCCCC(=O)N[C@@H](CCC(=O)NCCCC[C@H](NC(=O)[C@H](Cc1ccc(O)cc1)NC(=O)[C@H](CC(=O)O)NC(=O)[C@H](CO)NC(=O)[C@@H](NC(=O)[C@H](Cc1ccccc1)NC(=O)[C@@H](NC(=O)CNC(=O)[C@H](CCC(N)=O)NC(=O)[C@H](CO)NC(=O)[C@@H](N)Cc1c[nH]cn1)[C@@H](C)O)[C@@H](C)O)C(=O)N[C@@H](CCCCN)C(=O)N[C@@H](Cc1ccc(O)cc1)C(=O)N[C@@H](CC(C)C)C(=O)N[C@@H](CC(=O)O)C(=O)N[C@@H](CO)C(=O)N[C@@H](CCCNC(=N)N)C(=O)N[C@@H](CCCNC(=N)N)C(=O)N[C@@H](C)C(=O)N[C@@H](CCC(N)=O)C(=O)N[C@@H](CC(=O)O)C(=O)N[C@@H](Cc1ccccc1)C(=O)N[C@H](C(=O)N[C@@H](CCC(N)=O)C(=O)N[C@@H](Cc1c[nH]c2ccccc12)C(=O)N[C@@H](CC(C)C)C(=O)N[C@H](C(=O)N[C@@H](C)C(=O)NCC(=O)NCC(N)=O)C(C)C)C(C)C)C(=O)O
B2: g715 (peptide)
peptide: HSQGTFTSDK([γGlu-Palmitoyl])SKYLDSRRAQDFVQWLVAGG-NH2
modifications: N-terminus assumed
SMILES: CCCCCCCCCCCCCCCC(=O)N[C@@H](CCC(=O)NCCCC[C@H](NC(=O)[C@H](CC(=O)O)NC(=O)[C@H](CO)NC(=O)[C@@H](NC(=O)[C@H](Cc1ccccc1)NC(=O)[C@@H](NC(=O)CNC(=O)[C@H](CCC(N)=O)NC(=O)[C@H](CO)NC(=O)[C@@H](N)Cc1c[nH]cn1)[C@@H](C)O)[C@@H](C)O)C(=O)N[C@@H](CO)C(=O)N[C@@H](CCCCN)C(=O)N[C@@H](Cc1ccc(O)cc1)C(=O)N[C@@H](CC(C)C)C(=O)N[C@@H](CC(=O)O)C(=O)N[C@@H](CO)C(=O)N[C@@H](CCCNC(=N)N)C(=O)N[C@@H](CCCNC(=N)N)C(=O)N[C@@H](C)C(=O)N[C@@H](CCC(N)=O)C(=O)N[C@@H](CC(=O)O)C(=O)N[C@@H](Cc1ccccc1)C(=O)N[C@H](C(=O)N[C@@H](CCC(N)=O)C(=O)N[C@@H](Cc1c[nH]c2ccccc12)C(=O)N[C@@H](CC(C)C)C(=O)N[C@H](C(=O)N[C@@H](C)C(=O)NCC(=O)NCC(N)=O)C(C)C)C(C)C)C(=O)O
B3: g326 (peptide)
peptide: HSQGTFTSDYSKYLDSRRAQDFVQWLVAGGGGGGK(Palmitoyl)-NH2
modifications: N-terminus assumed
SMILES: CCCCCCCCCCCCCCCC(=O)NCCCC[C@H](NC(=O)CNC(=O)CNC(=O)CNC(=O)CNC(=O)CNC(=O)CNC(=O)[C@H](C)NC(=O)[C@@H](NC(=O)[C@H](CC(C)C)NC(=O)[C@H](Cc1c[nH]c2ccccc12)NC(=O)[C@H](CCC(N)=O)NC(=O)[C@@H](NC(=O)[C@H](Cc1ccccc1)NC(=O)[C@H](CC(=O)O)NC(=O)[C@H](CCC(N)=O)NC(=O)[C@H](C)NC(=O)[C@H](CCCNC(=N)N)NC(=O)[C@H](CCCNC(=N)N)NC(=O)[C@H](CO)NC(=O)[C@H](CC(=O)O)NC(=O)[C@H](CC(C)C)NC(=O)[C@H](Cc1ccc(O)cc1)NC(=O)[C@H](CCCCN)NC(=O)[C@H](CO)NC(=O)[C@H](Cc1ccc(O)cc1)NC(=O)[C@H](CC(=O)O)NC(=O)[C@H](CO)NC(=O)[C@@H](NC(=O)[C@H](Cc1ccccc1)NC(=O)[C@@H](NC(=O)CNC(=O)[C@H](CCC(N)=O)NC(=O)[C@H](CO)NC(=O)[C@@H](N)Cc1c[nH]cn1)[C@@H](C)O)[C@@H](C)O)C(C)C)C(C)C)C(N)=O
B4: g321 (peptide)
peptide: HSQGTFTSDYSKYLDSRRAQDFVQWLVAGGKNNRNNIAK-NH2
B5: g771 (peptide)
peptide: HSQGTFTSDYSEYLDSK([Ahx-Palmitoyl])RARDFVEWLERGG-NH2
modifications: not fully specified
B6: g327 (peptide)
peptide: HSQGTFTSDYSKYLDSRRAQDFVQWLVAGGGGGGK([γGlu-Palmitoyl])-NH2
B7: g316 (peptide)
peptide: HSQGTFTSDYSKYLDSRRAQDFVQWLVAGGSSGGSS-NH2
B8: g726 (peptide)
peptide: HGEGTFTSDYSEYLDSK([Ahx-Palmitoyl])RARDFVEWLERGG-NH2
modifications: N-terminus assumed
SMILES: CCCCCCCCCCCCCCCC(=O)NCCCCCC(=O)NCCCC[C@H](NC(=O)[C@H](CO)NC(=O)[C@H](CC(=O)O)NC(=O)[C@H](CC(C)C)NC(=O)[C@H](Cc1ccc(O)cc1)NC(=O)[C@H](CCC(=O)O)NC(=O)[C@H](CO)NC(=O)[C@H](Cc1ccc(O)cc1)NC(=O)[C@H](CC(=O)O)NC(=O)[C@H](CO)NC(=O)[C@@H](NC(=O)[C@H](Cc1ccccc1)NC(=O)[C@@H](NC(=O)CNC(=O)[C@H](CCC(=O)O)NC(=O)CNC(=O)[C@@H](N)Cc1c[nH]cn1)[C@@H](C)O)[C@@H](C)O)C(=O)N[C@@H](CCCNC(=N)N)C(=O)N[C@@H](C)C(=O)N[C@@H](CCCNC(=N)N)C(=O)N[C@@H](CC(=O)O)C(=O)N[C@@H](Cc1ccccc1)C(=O)N[C@H](C(=O)N[C@@H](CCC(=O)O)C(=O)N[C@@H](Cc1c[nH]c2ccccc12)C(=O)N[C@@H](CC(C)C)C(=O)N[C@@H](CCC(=O)O)C(=O)N[C@@H](CCCNC(=N)N)C(=O)NCC(=O)NCC(N)=O)C(C)C
B9: g322 (peptide)
peptide: HSQGTFTSDYSKYLDSRRAQDFVQWLVAGGKNNRNNIAK(Palmitoyl)-NH2
modifications: N-terminus assumed
SMILES: CCCCCCCCCCCCCCCC(=O)NCCCC[C@H](NC(=O)[C@H](C)NC(=O)[C@@H](NC(=O)[C@H](CC(N)=O)NC(=O)[C@H](CC(N)=O)NC(=O)[C@H](CCCNC(=N)N)NC(=O)[C@H](CC(N)=O)NC(=O)[C@H](CC(N)=O)NC(=O)[C@H](CCCCN)NC(=O)CNC(=O)CNC(=O)[C@H](C)NC(=O)[C@@H](NC(=O)[C@H](CC(C)C)NC(=O)[C@H](Cc1c[nH]c2ccccc12)NC(=O)[C@H](CCC(N)=O)NC(=O)[C@@H](NC(=O)[C@H](Cc1ccccc1)NC(=O)[C@H](CC(=O)O)NC(=O)[C@H](CCC(N)=O)NC(=O)[C@H](C)NC(=O)[C@H](CCCNC(=N)N)NC(=O)[C@H](CCCNC(=N)N)NC(=O)[C@H](CO)NC(=O)[C@H](CC(=O)O)NC(=O)[C@H](CC(C)C)NC(=O)[C@H](Cc1ccc(O)cc1)NC(=O)[C@H](CCCCN)NC(=O)[C@H](CO)NC(=O)[C@H](Cc1ccc(O)cc1)NC(=O)[C@H](CC(=O)O)NC(=O)[C@H](CO)NC(=O)[C@@H](NC(=O)[C@H](Cc1ccccc1)NC(=O)[C@@H](NC(=O)CNC(=O)[C@H](CCC(N)=O)NC(=O)[C@H](CO)NC(=O)[C@@H](N)Cc1c[nH]cn1)[C@@H](C)O)[C@@H](C)O)C(C)C)C(C)C)[C@@H](C)CC)C(N)=O
B10: g315 (peptide)
peptide: HSQGTFTSDYSKYLDSRRAQDFVQWLVAGGGGGG-NH2
B11: g806 (peptide)
peptide: HSQGTFTSDYSKYLDSRAAQK([Ahx-Palmitoyl])FVQWLERGG-NH2
modifications: not fully specified

Numbered stars: 1 amine (or outer) side, 2 acyl side, 3 side chain; on linkers, the order of the positions; unused ones are H or OH. Side chains are listed from the residue outwards. Ends that are not written are not given here. * marks the point of attachment. γGlu = O=C(O)[C@H](CCC(=O)[*:2])N[*:1]; Palmitoyl = CCCCCCCCCCCCCCCC(=O)*; Ahx = NCCCCCC(=O)O

human GLP-1 receptor, sequence (P43220 24-463): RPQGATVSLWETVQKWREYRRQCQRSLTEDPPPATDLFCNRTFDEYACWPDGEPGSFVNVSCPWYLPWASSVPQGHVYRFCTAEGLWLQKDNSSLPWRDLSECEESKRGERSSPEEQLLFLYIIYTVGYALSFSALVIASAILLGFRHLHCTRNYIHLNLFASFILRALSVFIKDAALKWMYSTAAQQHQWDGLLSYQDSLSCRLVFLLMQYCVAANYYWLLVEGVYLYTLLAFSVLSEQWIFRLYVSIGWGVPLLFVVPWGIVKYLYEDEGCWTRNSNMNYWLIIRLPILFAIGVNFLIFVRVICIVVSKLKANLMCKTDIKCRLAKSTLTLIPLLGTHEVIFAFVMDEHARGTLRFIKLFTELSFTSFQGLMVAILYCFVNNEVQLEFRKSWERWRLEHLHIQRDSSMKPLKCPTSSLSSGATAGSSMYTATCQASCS

For the first assay, the target named is human glucagon receptor (human, UniProt P47871 26-477). Briefly: cell-based or functional assay.
human glucagon receptor, sequence (P47871 26-477): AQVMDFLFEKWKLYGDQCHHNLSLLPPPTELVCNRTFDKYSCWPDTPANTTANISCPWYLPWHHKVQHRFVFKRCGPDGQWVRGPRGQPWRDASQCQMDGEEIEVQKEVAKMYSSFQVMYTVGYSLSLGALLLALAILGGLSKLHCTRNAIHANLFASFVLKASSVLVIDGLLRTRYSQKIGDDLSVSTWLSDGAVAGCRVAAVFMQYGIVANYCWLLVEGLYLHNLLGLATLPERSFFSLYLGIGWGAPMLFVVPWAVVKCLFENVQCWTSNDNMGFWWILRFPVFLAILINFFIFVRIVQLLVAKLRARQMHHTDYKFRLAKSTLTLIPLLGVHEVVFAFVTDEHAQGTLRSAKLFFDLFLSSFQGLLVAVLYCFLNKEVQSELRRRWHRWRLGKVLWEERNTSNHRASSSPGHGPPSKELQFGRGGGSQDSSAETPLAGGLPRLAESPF
Turning to B1, the cAMP EC50 (assay 1) came to 2.46 nM.
Still for that read-out and setting: the figure for B2 is 0.00253 nM; for B3 it is 0.00282 nM.
Still for that read-out and setting: the figure for B4 is 0.0279 nM.
Same read-out and setting: the figure for B5 is 0.00551 nM; for B6 it is 0.00232 nM.
As to B7, the cAMP EC50 (assay 1) was determined as 0.0106 nM.
On the same count and under the same terms, the figure for B8 is 13.1 nM; for B9 it is 0.00355 nM; for B10 it is 0.00504 nM.
In the case of B11, the cAMP EC50 (assay 1) amounted to 0.0099 nM.

A further assay concerns the target human GLP-1 receptor (human, UniProt P43220 24-463). Briefly: cell-based or functional assay.
B1: the cAMP EC50 (assay 1) amounted to 12.9 nM.
Still for that read-out and setting: the figure for B2 is 0.0204 nM; for B3 it is 0.0247 nM; for B4 it is 0.0272 nM.
Same read-out and setting: the figure for B5 is 0.0175 nM; for B6 it is 0.0193 nM; for B7 it is 0.0314 nM.
Turning to B8, the cAMP EC50 (assay 1) was determined as 0.00791 nM.
As for B9, the cAMP EC50 (assay 1) came to 0.0106 nM.
On the same count and under the same terms, the figure for B10 is 0.0273 nM; for B11 it is 0.171 nM.

A further assay concerns the target T1, human glucose-dependent insulinotropic peptide (gastric inhibitory polypeptide) receptor (human) (UniProt P48546).
T1 sequence (looked up): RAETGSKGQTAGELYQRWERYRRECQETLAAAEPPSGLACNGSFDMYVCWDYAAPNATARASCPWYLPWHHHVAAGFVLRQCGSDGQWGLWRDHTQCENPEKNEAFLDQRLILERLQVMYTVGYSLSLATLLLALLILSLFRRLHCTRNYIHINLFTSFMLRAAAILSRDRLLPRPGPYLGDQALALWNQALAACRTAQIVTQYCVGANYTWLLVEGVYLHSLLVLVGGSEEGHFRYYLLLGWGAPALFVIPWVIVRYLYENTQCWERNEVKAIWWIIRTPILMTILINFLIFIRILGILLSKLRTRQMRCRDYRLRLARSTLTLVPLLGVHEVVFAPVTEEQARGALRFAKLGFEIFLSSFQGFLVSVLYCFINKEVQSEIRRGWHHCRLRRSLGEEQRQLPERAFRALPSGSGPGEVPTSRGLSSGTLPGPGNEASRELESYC
Briefly: cell-based or functional assay.
Turning to B1, the cAMP EC50 (assay 1) was 11.8 nM.
Molecule B2 registered a cAMP EC50 (assay 1) of 0.998 nM.
Consider B3, for which the cAMP EC50 (assay 1) was 12.6 nM.
The same measure, in the same setting: the figure for B4 is 6.41 nM; for B5 it is 37.1 nM.
On the same count and under the same terms, the figure for B6 is 12.8 nM; for B7 it is 3.65 nM.
With B8, the cAMP EC50 (assay 1) is 215 nM.
Still for that read-out and setting: the figure for B9 is 1.72 nM; for B10 it is 19.7 nM; for B11 it is 105 nM.

The values are drawn from patent US20190185537A1 (AstraZeneca / MedImmune, published 2019).
